These results are taken from patent US20260242735A1 (UNIVERSIT T BASEL, published 2026).

The target in one assay is human CD33 P48H (human, UniProt P20138 18-364). The experiment in a line: flow cytometry, transfected cells. A general note: Flow cytometry measures light scatter and fluorescence of single cells or particles in a stream.
The next assay deals with human CD33 P48D (human, UniProt P20138 18-364). The experiment in a line: flow cytometry, transfected cells.
In the next assay the target is human CD33 Y50V (human, UniProt P20138 18-364). The experiment in a line: flow cytometry, transfected cells.
A further assay addresses human CD33 Y50H (human, UniProt P20138 18-364). Kind of assay: flow cytometry, transfected cells.
The target in the next assay is human CD33 K52D (human, UniProt P20138 18-364). Kind of assay: flow cytometry, transfected cells.
The target of another assay is human CD33 N20D (human, UniProt P20138 18-364). Kind of assay: flow cytometry, transfected cells.
For the next assay, the target named is human CD33 F21S (human, UniProt P20138 18-364). The experiment in a line: flow cytometry, transfected cells.
The next assay addresses human CD33 D18R (human, UniProt P20138 19-364). The experiment in a line: flow cytometry, HEK293-T, IgG.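 Also: CD33 point mutants transiently expressed, antibody binding measured by fluorescence in duplicate, background subtracted and scaled to binding on wild-type CD33 as 100%.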
A further assay has as its target human CD33 P19D (human, UniProt P20138 18-364). The experiment in a line: flow cytometry, HEK293-T, IgG.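 Also: CD33 point mutants transiently expressed, antibody binding measured by fluorescence in duplicate, background subtracted and scaled to binding on wild-type CD33 as 100%.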
The target of another assay is human CD33 P19K (human, UniProt P20138 18-364). The experiment in a line: flow cytometry, HEK293-T, IgG.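 Also: CD33 point mutants transiently expressed, antibody binding measured by fluorescence in duplicate, background subtracted and scaled to binding on wild-type CD33 as 100%.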
In another assay the target is human CD33 N20G (human, UniProt P20138 18-364). The experiment in a line: flow cytometry, HEK293-T, IgG.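 Also: CD33 point mutants transiently expressed, antibody binding measured by fluorescence in duplicate, background subtracted and scaled to binding on wild-type CD33 as 100%.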
Chain of human CD33 N20G (P20138 18-364 N20G limits assumed): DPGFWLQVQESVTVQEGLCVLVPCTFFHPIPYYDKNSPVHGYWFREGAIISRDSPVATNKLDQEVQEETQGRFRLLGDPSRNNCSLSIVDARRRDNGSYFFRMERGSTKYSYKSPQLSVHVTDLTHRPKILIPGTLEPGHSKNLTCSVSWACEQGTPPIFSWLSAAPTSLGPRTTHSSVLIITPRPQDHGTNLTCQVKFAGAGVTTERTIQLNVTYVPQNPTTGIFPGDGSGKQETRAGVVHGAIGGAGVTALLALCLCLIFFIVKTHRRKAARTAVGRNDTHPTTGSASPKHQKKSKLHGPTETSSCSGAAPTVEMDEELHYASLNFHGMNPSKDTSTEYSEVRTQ
In another assay the target is human CD33 N20T (human, UniProt P20138 18-364). Kind of assay: flow cytometry, HEK293-T, IgG.
The target in the next assay is human CD33 N20L (human, UniProt P20138 18-364). The experiment in a line: flow cytometry, HEK293-T, IgG.
Chain of human CD33 N20L (P20138 18-364 N20L limits assumed): as the sequence (P20138 18-364 N20G limits assumed) above, with G3L counted along it
Another assay deals with human CD33 N20W (human, UniProt P20138 18-364). Kind of assay: flow cytometry, HEK293-T, IgG.
Another assay deals with human CD33 N20Q (human, UniProt P20138 18-364). The experiment in a line: flow cytometry, HEK293-T, IgG.
Chain of human CD33 N20Q (P20138 18-364 N20Q limits assumed): as the sequence (P20138 18-364 N20G limits assumed) above, with G3Q counted along it
The next assay concerns the target human CD33 N20E (human, UniProt P20138 18-364). Kind of assay: flow cytometry, HEK293-T, IgG.
For a further assay, the target named is human CD33 N20K (human, UniProt P20138 18-364). Kind of assay: flow cytometry, HEK293-T, IgG.
A further assay addresses human CD33 N20V (human, UniProt P20138 18-364). Kind of assay: flow cytometry, HEK293-T, IgG.
In the next assay the target is human CD33 F21V (human, UniProt P20138 18-364). The experiment in a line: flow cytometry, HEK293-T, IgG.
Chain of human CD33 F21V (P20138 18-364 F21V limits assumed): as the sequence (P20138 18-364 N20G limits assumed) above, with G3N, F4V counted along it
Another assay deals with human CD33 F21L (human, UniProt P20138 18-364). The experiment in a line: flow cytometry, HEK293-T, IgG.
Chain of human CD33 F21L (P20138 18-364 F21L limits assumed): as the sequence (P20138 18-364 N20G limits assumed) above, with G3N, F4L counted along it
The target of a further assay is human CD33 F21H (human, UniProt P20138 18-364). Kind of assay: flow cytometry, HEK293-T, IgG.
Chain of human CD33 F21H (P20138 18-364 F21H limits assumed): as the sequence (P20138 18-364 N20G limits assumed) above, with G3N, F4H counted along it
For another assay, the target named is human CD33 W22G (human, UniProt P20138 18-364). Kind of assay: flow cytometry, HEK293-T, IgG.
Another assay deals with human CD33 W22T (human, UniProt P20138 18-364). The experiment in a line: flow cytometry, HEK293-T, IgG.
Chain of human CD33 W22T (P20138 18-364 W22T limits assumed): as the sequence (P20138 18-364 N20G limits assumed) above, with G3N, W5T counted along it
The next assay has as its target human CD33 W22L (human, UniProt P20138 18-364). The experiment in a line: flow cytometry, HEK293-T, IgG.
Another assay has as its target human CD33 W22P (human, UniProt P20138 18-364). Kind of assay: flow cytometry, HEK293-T, IgG.
Another assay deals with human CD33 W22Y (human, UniProt P20138 18-364). Kind of assay: flow cytometry, HEK293-T, IgG.
Chain of human CD33 W22Y (P20138 18-364 W22Y limits assumed): as the sequence (P20138 18-364 N20G limits assumed) above, with G3N, W5Y counted along it
For assay [1], the target named is human CD33 W22N (human, UniProt P20138 18-364). Kind of assay: flow cytometry, HEK293-T, IgG.
Target sequence in this assay (P20138 18-364 W22N limits assumed): as the sequence (P20138 18-364 N20G limits assumed) above, with G3N, W5N counted along it
Description: (§1) An alanine scan on human CD33 was performed to the determine the residues on CD33 that are involved in binding to the antibodies investigated. […] Briefly, a mutation library of CD33 was created by high-throughput, site-directed mutagenesis. Each residue was individually mutated to alanine, with alanine codons mutated to serine. The mutant library was arrayed in 384-well microplates and transiently transfected into HEK293-T. Following transfection, cells were incubated with the indicated antibodies (IgG or Fab) at concentrations pre-determined using an independent immunofluorescence titration curve on wild type CD33. […] Binding of each antibody to each mutant clone was determined in duplicates. For each point, background fluorescence was subtracted from the raw data, which were then normalized to antibody reactivity with wild type CD33.
(§2) Antibodies were screened for binding to the human CD33 variants in IgG format. […] For each mutation, background fluorescence was subtracted from the raw data, which were then normalized to antibody reactivity with wild-type CD33.
Another assay deals with human CD33 W22Q (human, UniProt P20138 18-364). The experiment in a line: flow cytometry, HEK293-T, IgG.
The target in another assay is human CD33 W22E (human, UniProt P20138 18-364). The experiment in a line: flow cytometry, HEK293-T, IgG.
Chain of human CD33 W22E (P20138 18-364 W22E limits assumed): as the sequence (P20138 18-364 N20G limits assumed) above, with G3N, W5E counted along it
For another assay, the target named is human CD33 W22R (human, UniProt P20138 18-364). The experiment in a line: flow cytometry, HEK293-T, IgG.
The target of the next assay is human CD33 Q24T (human, UniProt P20138 18-364). Kind of assay: flow cytometry, HEK293-T, IgG.
In the next assay the target is human CD33 Q24V (human, UniProt P20138 18-364). The experiment in a line: flow cytometry, HEK293-T, IgG.
Another assay has as its target human CD33 Q24L (human, UniProt P20138 18-364). The experiment in a line: flow cytometry, HEK293-T, IgG.
Another assay has as its target human CD33 Q24N (human, UniProt P20138 18-364). Kind of assay: flow cytometry, HEK293-T, IgG.
The target of a further assay is human CD33 Q24E (human, UniProt P20138 18-364). Kind of assay: flow cytometry, HEK293-T, IgG.
Another assay has as its target human CD33 Q24R (human, UniProt P20138 18-364). Kind of assay: flow cytometry, HEK293-T, IgG.
Assay [2] concerns the target human CD33 W22N (human, UniProt P20138 18-364). The experiment in a line: flow cytometry, transfected cells.
Target sequence in this assay (P20138 18-364 W22N limits assumed): as the sequence (P20138 18-364 N20G limits assumed) above, with G3N, W5N counted along it

Chain of human CD33 Q24N (P20138 18-364 Q24N limits assumed): as the sequence (P20138 18-364 N20G limits assumed) above, with G3N, Q7N counted along it
Chain of human CD33 W22L (P20138 18-364 W22L limits assumed): as the sequence (P20138 18-364 N20G limits assumed) above, with G3N, W5L counted along it
Chain of human CD33 Y50H (P20138 18-364 Y50H limits assumed): as the sequence (P20138 18-364 N20G limits assumed) above, with G3N, Y33H counted along it
Description for human CD33 D18R: as §1, §2
Description for human CD33 F21H: as §1, §2
Description for human CD33 F21L: as §1, §2
Description for human CD33 F21V: as §1, §2
Description for human CD33 N20E: as §1, §2
Description for human CD33 N20G: as §1, §2
Description for human CD33 N20K: as §1, §2
Description for human CD33 N20L: as §1, §2
Description for human CD33 N20Q: as §1, §2
Description for human CD33 N20T: as §1, §2
Description for human CD33 N20V: as §1, §2
Description for human CD33 N20W: as §1, §2
Description for human CD33 P19D: as §1, §2
Description for human CD33 P19K: as §1, §2
Description for human CD33 Q24E: as §1, §2
Description for human CD33 Q24L: as §1, §2
Description for human CD33 Q24N: as §1, §2
Description for human CD33 Q24R: as §1, §2
Description for human CD33 Q24T: as §1, §2
Description for human CD33 Q24V: as §1, §2
Description for human CD33 W22E: as §1, §2
Description for human CD33 W22G: as §1, §2
Description for human CD33 W22L: as §1, §2
Description for human CD33 W22P: as §1, §2
Description for human CD33 W22Q: as §1, §2
Description for human CD33 W22R: as §1, §2
Description for human CD33 W22T: as §1, §2
Description for human CD33 W22Y: as §1, §2

B1: Refmab #4 (antibody, human IgG1, V domains shown)
VH: QVQLVQSGAEVKKPGESVKVSCKASGYTFTNYGMNWVKQAPGQGLEWMGWINTYTGEPTYADKFQGRVTMTTDTSTSTAYMEIRNLGGDDTAVYYCARWSWSDGYYVYFDYWGQGTSVTVSS
VL: DIVMTQSPDSLTVSLGERTTINCKSSQSVLDSSTNKNSLAWYQQKPGQPPKLLLSWASTRESGIPDRFSGSGSGTDFTLTIDSPQPEDSATYYCQQSAHFPITFGQGTRLEIK
Turning to B1, the binding result with human CD33 P48H, in the assay with human CD33 P48D, with human CD33 Y50V, in the assay with human CD33 Y50H and with human CD33 K52D was “no binding (tested: below 20%)” in each case.

B2: Refmab #1 (antibody, human IgG1, V domains shown)
VH: EVQLVQSGAEVKKPGSSVKVSCKASGYTITDSNIHWVRQAPGQSLEWIGYIYPYNGGTDYNQKFKNRATLTVDNPTNTAYMELSSLRSEDTAFYYCVNGNPWLAYWGQGTLVTVSS
VL: DIQLTQSPSTLSASVGDRVTITCRASESLDNYGIRFLTWFQQKPGKAPKLLMYAASNQGSGVPSRFSGSGSGTEFTLTISSLQPDDFATYYCQQTKEVPWSFGQGTKVEVK
notes: also called hP67.6; Absolute Antibody Cat. No. Ab00283-10.0
In the case of B2, the binding result with human CD33 N20D and in the assay with human CD33 F21S was “no binding (tested: below 20%)” each time.

B3: Refmab #5 (antibody, human IgG1, V domains shown)
VH: QVQLVQSGAEVKKPGASVKVSCKASGYTFTNYDINWVRQAPGQGLEWIGWIYPGDGSTKYNEKFKAKATLTADTSTSTAYMELRSLRSDDTAVYYCASGYEDAMDYWGQGTTVTVSS
VL: DIQMTQSPSSLSASVGDRVTINCKASQDINSYLSWFQQKPGKAPKTLIYRANRLVDGVPSRFSGSGSGQDYTLTISSLQPEDFATYYCLQYDEFPLTFGGGTKVEIK
notes: tested in IgG format
Turning to B3, the “Mean % WT Binding” value in the assay with human CD33 D18R was 97.4 % WT binding; with human CD33 P19D, 96.4 % WT binding; with human CD33 P19K, 86.2 % WT binding; with human CD33 N20G, 96.9 % WT binding; in the assay with human CD33 N20T, 107 % WT binding; in the assay with human CD33 N20L, 96.3 % WT binding. Also, the “Mean % WT Binding” value is 71.7 % WT binding in the assay with human CD33 N20W; 93.2 % WT binding with human CD33 N20Q; 109 % WT binding in the assay with human CD33 N20E; 105 % WT binding with human CD33 N20K; 108 % WT binding with human CD33 N20V; 104 % WT binding with human CD33 F21V. The “Mean % WT Binding” value with human CD33 F21L came to 122 % WT binding; with human CD33 F21H, 108 % WT binding; with human CD33 W22G, 101 % WT binding; in the assay with human CD33 W22T it was 108 % WT binding; with human CD33 W22L it was 96 % WT binding; with human CD33 W22P, 110 % WT binding. The “Mean % WT Binding” value in the assay with human CD33 W22Y came out at 107 % WT binding; with human CD33 W22N [1], 106 % WT binding; with human CD33 W22Q it was 109 % WT binding; in the assay with human CD33 W22E it was 111 % WT binding; in the assay with human CD33 W22R, 104 % WT binding; with human CD33 Q24T, 105 % WT binding. For the same molecule, the “Mean % WT Binding” value is 97.9 % WT binding with human CD33 Q24V; 101 % WT binding with human CD33 Q24L; 110 % WT binding in the assay with human CD33 Q24N; 95.6 % WT binding in the assay with human CD33 Q24E; 102 % WT binding with human CD33 Q24R.

B4: Refmab #5 (antibody, human IgG1, V domains shown)
VH: B3 VH
VL: B3 VL
For B4, the binding result with human CD33 P48H, with human CD33 P48D, with human CD33 Y50V, with human CD33 Y50H and with human CD33 K52D was “no binding (tested: below 20%)” throughout.

B5: Refmab #6 (antibody, human IgG1, V domains shown)
VH: QVQLQQPGAEVVKPGASVKMSCKASGYTFTSYYIHWIKQTPGQGLEWVGVIYPGNDDISYNQKFQGKATLTADKSSTTAYMQLSSLTSEDSAVYYCAREVRLRYFDVWGQGTTVTVSS
VL: EIVLTQSPGSLAVSPGERVTMSCKSSQSVFFSSSQKNYLAWYQQIPGQSPRLLIYWASTRESGVPDRFTGSGSGTDFTLTISSVQPEDLAIYYCHQYLSSRTFGQGTKLEIK
notes: tested in IgG format
On to B5, for which the “Mean % WT Binding” value with human CD33 D18R was found to be 68.3 % WT binding; with human CD33 P19D, 105 % WT binding; in the assay with human CD33 P19K, 85.4 % WT binding; with human CD33 N20G it was 101 % WT binding; with human CD33 N20T, 106 % WT binding; in the assay with human CD33 N20L it was 88.2 % WT binding. For the same molecule, the “Mean % WT Binding” value amounted to 50.3 % WT binding with human CD33 N20W; 97.2 % WT binding with human CD33 N20Q; 108 % WT binding with human CD33 N20E; 91.8 % WT binding in the assay with human CD33 N20K; 96.9 % WT binding in the assay with human CD33 N20V; 118 % WT binding with human CD33 F21V. Further, the “Mean % WT Binding” value is 118 % WT binding with human CD33 F21L; 111 % WT binding in the assay with human CD33 F21H; 8.1 % WT binding with human CD33 W22G; 2.6 % WT binding with human CD33 W22T; 1.1 % WT binding with human CD33 W22L; 1.8 % WT binding with human CD33 W22P. The “Mean % WT Binding” value in the assay with human CD33 W22Y stood at 4.1 % WT binding; with human CD33 W22N [1], 5.6 % WT binding; in the assay with human CD33 W22Q, 7.6 % WT binding; in the assay with human CD33 W22E it was 1.7 % WT binding; in the assay with human CD33 W22R, 1.3 % WT binding; with human CD33 Q24T, 97.7 % WT binding. For the same molecule, the “Mean % WT Binding” value worked out at 94.3 % WT binding with human CD33 Q24V; 98.9 % WT binding with human CD33 Q24L; 95.4 % WT binding with human CD33 Q24N; 89.7 % WT binding in the assay with human CD33 Q24E; 86.2 % WT binding in the assay with human CD33 Q24R.

B6: Refmab #6 (antibody, human IgG1, V domains shown)
VH: B5 VH
VL: B5 VL
For B6, the binding result with human CD33 W22N [2] was “no binding (tested: below 20%)”.
